Results as given in publication PMC4407695 (Journal of molecular biology, 2014).

B1: NHERF1 (natural protein, UniProt O14745 1-358, looked up)
chain: MSADAAAGAPLPRLCCLEKGPNGYGFHLHGEKGKLGQYIRLVEPGSPAEKAGLLAGDRLVEVNGENVEKETHQQVVSRIRAALNAVRLLVVDPETDEQLQKLGVQVREELLRAQEAPGQAEPPAAAEVQGAGNENEPREADKSHPEQRELRPRLCTMKKGPSGYGFNLHSDKSKPGQFIRSVDPDSPAEASGLRAQDRIVEVNGVCMEGKQHGDVVSAIRAGGDETKLLVVDRETDEFFKKCRVIPSQEHLNGPLPVPFTNGEIQKENSREALAEAALESPRPALVRSASSDTSEELNSQDSPPKQDSTAPSSTSSSDPILDFNISLAMAKERAHQKRSSKRAPQMDWSKKNELFSNL
B2: FERM domain of Merlin (domain or fragment, human, UniProt P35240 22-311, looked up)
chain: FTVRIVTMDAEMEFNCEMKWKGKDLFDLVCRTLGLRETWFFGLQYTIKDTVAWLKMDKKVLDHDVSKEEPVTFHFLAKFYPENAEEELVQEITQHLFFLQVKKQILDEKIYCPPEASVLLASYAVQAKYGDYDPSVHKRGFLAQEELLPKRVINLYQMTPEMWEERITAWYAEHRGRARDEAEMEYLKIAQDLEMYGVNYFAIRNKKGTELLLGVDALGLHIYDPENRLTPKISFPWNEIRNISYSDKEFTIKPLDKKIDVFKFNSSKLRVNKLILQLCIGNHDLFMRRR

What was measured:
Merlin(S518D) [1] = target: T1, Merlin(S518D) (human, UniProt P35240 1-595, S518D); assay: SPR
T1 sequence (looked up): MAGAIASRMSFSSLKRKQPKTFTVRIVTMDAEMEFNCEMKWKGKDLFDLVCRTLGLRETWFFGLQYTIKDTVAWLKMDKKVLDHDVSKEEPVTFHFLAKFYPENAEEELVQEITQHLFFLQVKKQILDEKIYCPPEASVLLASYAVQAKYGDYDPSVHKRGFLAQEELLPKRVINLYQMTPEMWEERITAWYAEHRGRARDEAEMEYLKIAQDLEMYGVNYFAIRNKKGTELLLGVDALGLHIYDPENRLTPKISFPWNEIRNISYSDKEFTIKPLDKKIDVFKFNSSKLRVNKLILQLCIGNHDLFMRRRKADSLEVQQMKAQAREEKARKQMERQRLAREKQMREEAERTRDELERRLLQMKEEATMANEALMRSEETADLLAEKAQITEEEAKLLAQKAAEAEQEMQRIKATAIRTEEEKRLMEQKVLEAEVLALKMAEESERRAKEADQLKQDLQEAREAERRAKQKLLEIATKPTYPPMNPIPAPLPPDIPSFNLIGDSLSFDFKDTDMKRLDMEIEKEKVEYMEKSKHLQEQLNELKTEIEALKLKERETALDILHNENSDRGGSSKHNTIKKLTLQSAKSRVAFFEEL

[2] = target: T2, wild-type full-length Merlin(wt) (human, UniProt P35240 1-595); assay: SPR
T2 sequence (looked up): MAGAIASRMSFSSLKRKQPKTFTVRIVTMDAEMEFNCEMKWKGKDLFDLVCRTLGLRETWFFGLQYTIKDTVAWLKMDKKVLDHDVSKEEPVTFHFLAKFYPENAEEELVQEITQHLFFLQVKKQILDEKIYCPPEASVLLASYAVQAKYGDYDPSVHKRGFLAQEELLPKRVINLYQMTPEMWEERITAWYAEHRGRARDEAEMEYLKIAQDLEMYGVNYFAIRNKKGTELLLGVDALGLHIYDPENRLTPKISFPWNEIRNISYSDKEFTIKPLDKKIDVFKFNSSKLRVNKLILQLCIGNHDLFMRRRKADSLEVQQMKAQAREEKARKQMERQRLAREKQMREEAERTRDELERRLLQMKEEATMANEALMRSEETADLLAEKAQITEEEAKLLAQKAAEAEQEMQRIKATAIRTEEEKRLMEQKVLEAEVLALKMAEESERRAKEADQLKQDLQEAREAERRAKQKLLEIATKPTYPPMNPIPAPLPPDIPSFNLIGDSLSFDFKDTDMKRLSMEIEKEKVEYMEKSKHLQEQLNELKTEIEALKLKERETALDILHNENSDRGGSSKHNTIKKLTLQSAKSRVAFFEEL

FERM domain of Merlin = target: B2; assay: ITC
FERM domain of Ezrin = FERM domain of Ezrin (UniProt P15311 2-296); assay: ITC
Merlin(S518D) [3] = target: T1, Merlin(S518D); assay: ITC
[4] = target: T2, wild-type full-length Merlin(wt); assay: ITC
NHERF1 [5] = target: B1; assay: SPR
NHERF1 [6] = target: B1; assay: ITC

FERM domain of Ezrin, sequence (P15311 2-296): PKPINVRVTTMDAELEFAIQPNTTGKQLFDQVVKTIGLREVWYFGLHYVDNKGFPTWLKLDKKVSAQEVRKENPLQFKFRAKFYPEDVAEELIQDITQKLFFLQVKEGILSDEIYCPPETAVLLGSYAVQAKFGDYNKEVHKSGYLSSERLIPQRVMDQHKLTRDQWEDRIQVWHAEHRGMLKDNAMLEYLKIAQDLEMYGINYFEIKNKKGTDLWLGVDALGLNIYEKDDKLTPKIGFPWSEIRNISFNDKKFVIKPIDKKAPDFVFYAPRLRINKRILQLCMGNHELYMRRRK

B1 was tested, and the Kd (Merlin(S518D) [1]) was 1.24 ± 0.22 µM, the Kd [2] was 0.956 ± 0.07 µM and the “stoichiometry N” value (FERM domain of Merlin) was 0.93. For the same binder, the “stoichiometry N” value (FERM domain of Ezrin) was 1.06, the Kd (Merlin(S518D) [3]) was 1.57 ± 0.322 µM and the “stoichiometry N” value (Merlin(S518D) [3]) was 0.39. The Kd [4] was 0.855 ± 0.16 µM and the “stoichiometry N” value [4] was 0.37.

B2 showed a Kd (NHERF1 [5]) of 0.459 ± 0.038 µM and a Kd (NHERF1 [6]) of 0.649 ± 0.018 µM.
